Data: patent US20030166162

Experiments:
[1] = molecular target: glutathione S transferase KLIP 4 chymosin pro-peptide cystatin fusion protein
[2] = molecular target: glutathione S transferase KLIP 14 chymosin pro-peptide cystatin fusion protein
[3] = molecular target: glutathione S transferase KLIP 12 chymosin pro-peptide cystatin fusion protein
[4] = molecular target: glutathione S transferase KLIP 15 chymosin pro-peptide cystatin fusion protein
[5] = molecular target: glutathione S transferase KLIP 16 chymosin pro-peptide cystatin fusion protein
[6] = molecular target: glutathione S transferase KLIP 11 chymosin pro-peptide cystatin fusion protein
[7] = molecular target: T1, GST-wild type calf chymosin pro-peptide-cystatin fusion protein, P09229
T1 chain: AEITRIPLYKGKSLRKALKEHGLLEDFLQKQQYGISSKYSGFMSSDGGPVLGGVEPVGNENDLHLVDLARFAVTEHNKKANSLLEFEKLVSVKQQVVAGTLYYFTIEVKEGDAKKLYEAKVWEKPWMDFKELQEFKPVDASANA

B1: calf chymosin (protein)
chain: GEVASVPLTNYLDSQYFGKIYLGTPPQEFTVLFDTGSSDFWVPSIYCKSNACKNHQRFDPRKSSTFQNLGKPLSIHYGTGSMQGILGYDTVTVSNIVDIQQTVGLSTQEPGDVFTYAEFDGILGMAYPSLASEYSIPVFDNMMNRHLVAQDLFSVYMDRNGQESMLTLGAIDPSYYTGSLHWVPVTVQQYWQFTVDSVTISGVVVACEGGCQAILDTGTSKLVGPSSDILNIQQAIGATQNQYGEFDIDCDNLSYMPTVVFEINGKMYPLTPSAYTSQDQGFCTSGFQSENHSQKWILGDVFIREYYSVFDRANNLVGLAKAI
B1 gave a % Cystatin accumulation following reaction, 0.5 hr @ 37 C [1] of 100%, a % Cystatin accumulation following reaction, 1.0 hr @ 37 C [1] of 100% and a % Cystatin accumulation following reaction, 2.0 hr @ 37 C [1] of 100%. For the same protein, the % Cystatin accumulation following reaction, 16 hr @ RT [1] was 87%, the % Cystatin accumulation following reaction, T = 0 [1] was 0% and the % Cystatin accumulation following reaction, 0.5 hr @ 37 C [2] was 72%. It also gave a % Cystatin accumulation following reaction, 1.0 hr @ 37 C [2] of 87%, a % Cystatin accumulation following reaction, 2.0 hr @ 37 C [2] of 99% and a % Cystatin accumulation following reaction, 16 hr @ RT [2] of 70%. For the same protein, the % Cystatin accumulation following reaction, T = 0 [2] was 0%, the % Cystatin accumulation following reaction, 0.5 hr @ 37 C [3] was 84% and the % Cystatin accumulation following reaction, 1.0 hr @ 37 C [3] was 99.4%. The % Cystatin accumulation following reaction, 2.0 hr @ 37 C [3] was 87%, the % Cystatin accumulation following reaction, 16 hr @ RT [3] was 64% and the % Cystatin accumulation following reaction, T = 0 [3] was 0%. The % Cystatin accumulation following reaction, 0.5 hr @ 37 C [4] was 40%, the % Cystatin accumulation following reaction, 1.0 hr @ 37 C [4] was 57.8% and the % Cystatin accumulation following reaction, 2.0 hr @ 37 C [4] was 77.8%. It also gave a % Cystatin accumulation following reaction, 16 hr @ RT [4] of 85%, a % Cystatin accumulation following reaction, T = 0 [4] of 0% and a % Cystatin accumulation following reaction, 0.5 hr @ 37 C [5] of 0%. For the same protein, the % Cystatin accumulation following reaction, 1.0 hr @ 37 C [5] was 0%, the % Cystatin accumulation following reaction, 2.0 hr @ 37 C [5] was 0% and the % Cystatin accumulation following reaction, 16 hr @ RT [5] was 0%. For the same protein, the % Cystatin accumulation following reaction, T = 0 [5] was 0%, the “Scissile bond (N-terminal sequence)” value [5] was “Uncleavable” and the % Cystatin accumulation following reaction, 0.5 hr @ 37 C [6] was 83%. The % Cystatin accumulation following reaction, 1.0 hr @ 37 C [6] was 80.5%, the % Cystatin accumulation following reaction, 2.0 hr @ 37 C [6] was 100% and the % Cystatin accumulation following reaction, 16 hr @ RT [6] was 67.8%. The % Cystatin accumulation following reaction, T = 0 [6] was 0%, the % Cystatin accumulation following reaction, 16 hr @ RT; product with N-terminus MSSDGG [7] was 50% and the % Cystatin accumulation following reaction, 16 hr @ RT; product with N-terminus SGFMSSDGG [7] was 50%. The % Cystatin accumulation following reaction, T = 0 [7] was 0%.
